In article PMC6704068:

Biological target: Saccharomyces cerevisiae alcohol dehydrogenase (Saccharomyces cerevisiae) (UniProt P00330)
Experiment: SEC + native MS

Question: How did the stoichiometry N turn out when “Saccharomyces cerevisiae alcohol dehydrogenase (from UniProt P00330 1-348) (enzyme)” was run?
Answer: 4
